According to patent US20100316648A1 (published 2010):
One block for each molecule: values may come before it. Ends that are not written are not given here.

B1: Plg-RKT carboxyl-terminal peptide CEQSKLFSDK (SEQ ID NO: 33) (peptide)
peptide: CEQSKLFSDK
modifications: also: coupled to bovine serum albumin (BSA), attachment site not given here
notes: also called C-terminal peptide of mouse Plg-RKT; Plg-RKT polypeptide
B2: Plasminogen (ligand, UniProt P00747 20-810, looked up)
chain: EPLDDYVNTQGASLFSVTKKQLGAGSIEECAAKCEEDEEFTCRAFQYHSKEQQCVIMAENRKSSIIIRMRDVVLFEKKVYLSECKTGNGKNYRGTMSKTKNGITCQKWSSTSPHRPRFSPATHPSEGLEENYCRNPDNDPQGPWCYTTDPEKRYDYCDILECEEECMHCSGENYDGKISKTMSGLECQAWDSQSPHAHGYIPSKFPNKNLKKNYCRNPDRELRPWCFTTDPNKRWELCDIPRCTTPPPSSGPTYQCLKGTGENYRGNVAVTVSGHTCQHWSAQTPHTHNRTPENFPCKNLDENYCRNPDGKRAPWCHTTNSQVRWEYCKIPSCDSSPVSTEQLAPTAPPELTPVVQDCYHGDGQSYRGTSSTTTTGKKCQSWSSMTPHRHQKTPENYPNAGLTMNYCRNPDADKGPWCFTTDPSVRWEYCNLKKCSGTEASVVAPPPVVLLPDVETPSEEDCMFGNGKGYRGKRATTVTGTPCQDWAAQEPHRHSIFTPETNPRAGLEKNYCRNPDGDVGGPWCYTTNPRKLYDYCDVPQCAAPSFDCGKPQVEPKKCPGRVVGGCVAHPHSWPWQVSLRTRFGMHFCGGTLISPEWVLTAAHCLEKSPRPSSYKVILGAHQEVNLEPHVQEIEVSRLFLEPTRKDIALLKLSSPAVITDKVIPACLPSPNYVVADRTECFITGWGETQGTFGAGLLKEAQLPVIENKVCNRYEFLNGRVQSTELCAGHLAGGTDSCQGDSGGPLVCFEKDKYILQGVTSWGLGCARPNKPGVYVRVSRFVTWIEGVMRNN
modifications: directly biotinylated in the assays of Examples 7-9; coupled to Sepharose in Example 1
notes: The same entry is used for unlabelled, biotinylated and Sepharose-coupled plasminogen; also called Plg; biotinylated plasminogen

Experiments:
Plasminogen [1] = molecular target: B2; assay: ELISA, detection control: plasminogen bound to BSA-coupled peptide, isotype control instead of anti-plasminogen MAb
plasminogen fragment K4 = molecular target: T1, plasminogen fragment K4 (UniProt P00747 374-459); assay: competition ELISA against biotinylated plasminogen on immobilized peptide
T1 construct: range 354-439
T1 sequence (looked up): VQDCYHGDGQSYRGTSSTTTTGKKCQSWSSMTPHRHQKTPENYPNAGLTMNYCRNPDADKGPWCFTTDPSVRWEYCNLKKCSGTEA
Experimental: (§1) 9. Recognition of Plg-RKT by Plasminogen Fragments in Other Assays to Define the ligand recognition specificity of Plg-RKT for plasminogen. the Plg-RKT polypeptide, […] (SEQ ID NO: 33), was coupled to microtiter wells. Plasminogen was directly biotinylated and then incubated with the immobilized peptide and detected with streptavidin-HRP, as above. (Plasminogen bound to the peptide in a concentration-dependent manner. In controls for specificity, biotinylated-Plg binding was competed by unlabeled Plg and no biotinylated-Plg binding to the reverse peptide was detected.) Plasminogen domains containing disulfide bonded kringle (K) structures were obtained by elastase digestion as described ³⁹. (K1-3 is comprised of the plasminogen amino acid sequences, Tyr⁷⁹-Val³³⁷ or Tyr⁷⁹-Val³⁵³. K4 is contained within the plasminogen amino acid sequences, Val³⁵⁴-Ala⁴³⁹. K5-PD is contained within the plasminogen amino acid sequences, Val⁴⁴²-Asn⁷⁹⁰ and contains kringle 5 as well as the latent protease domain.)

[2] = molecular target: T2, plasminogen fragment K1-3 (UniProt P00747 99-357); assay: as above
T2 construct: range 79-337 or 79-353; it may not count on the precursor entry
Experimental: as §1

[3] = molecular target: B1; assay: ELISA on BSA-coupled peptide, anti-plasminogen MAb detection
Source text: Our isolation method was consistent with exposure of the carboxyl-terminus of Plg-RKT (with its carboxyl-terminal lysine) on the cell surface and also with the ability of the carboxyl-terminal domain to bind to plasminogen. For verification, we tested whether a synthetic peptide, corresponding to the C-terminus of Plg-RKT could bind plasminogen. The peptide, […] (SEQ ID NO: 33) corresponding to the ten C-terminal amino acids of Plg-RKT with cysteine substituted for R₁₃₈) was coupled to bovine serum albumin (BSA) and then coated onto wells of microtiter plates at 10 μg/ml. The wells were blocked with 5% BSA. Plasminogen (0.2 μM) was incubated with the wells, followed by our anti-plasminogen MAb ³⁶ and detection with HRP-conjugated goat anti-mouse IgG (Biosource, Camarillo, Calif.). Plasminogen bound to the peptide in a concentration dependent manner with 50% maximal binding achieved at a plasminogen concentration of ˜10 nM. The binding was specific because it was blocked in the presence of epsilon-aminocaproic acid (EACA), consistent with the ability of EACA to inhibit plasminogen binding to differentiated Hoxa9-ER4 cells. […] In controls for the detection method, O.D.₄₉₀ values obtained using an isotype control antibody or in the absence of added plasminogen were <5% of the values for plasminogen binding to the BSA-coupled peptide detected with anti-plasminogen MAb.

Plasminogen [4] = molecular target: B2; assay: competition ELISA, soluble peptide against biotinylated plasminogen on immobilized …-BSA

O.D.490 as percent of the value with anti-plasminogen MAb (Plasminogen [1]): < 5%
Molecule: isotype control antibody (Example 4)

IC50 (Plasminogen [4]): 1000 nM
B3: peptide CEQSRFFIDK (SEQ ID NO: 34), corresponding to the C terminus of human Plg-RKT (peptide)
peptide: CEQSRFFIDK
notes: also called wild type peptide

Continued, molecule first:

Molecule: B1
binding result (plasminogen fragment K4): binds | binding result [2]: binds

Molecule: B2
EC50 [3]: ~10 nM
